Each block holds one binder with its values, some of them ahead of it.
Experiments:
[1] = biological target: T1, FcγRI (CD64) on IFNγ-activated U937 cells (UniProt P12314 16-374, limits assumed); test: FcγRI bridging assay, FIG. 13 upper panel
T1 construct: whole, on cells; also called FcRγI
Procedure: (§1) Briefly, the FcγR bridging assay was performed by coating 96 well Maxisorb ELISA plates (Nalge-Nunc Rochester, N.Y., USA) with recombinant soluble human CD154 ligand (i.e., at a concentration of 1 μg/ml overnight at 4° C. in PBS; Karpusas, Hsu et al. 1995). Titrations of glycosylated or aglycosylated forms of anti-CD154 antibody (hu5c8) were then bound to CD154 for 30 minutes at 37° C., the plates were then washed, and the binding of fluorescently labeled U937 (CD64⁺) cells was measured. The U937 cells were grown in RPMI medium with 10% FBS, 10 mM HEPES, L-glutamine, and penicillin/streptomycin, split 1:2, and activated for one day prior to the assay with 1000 units/ml of IFNγ to increase Fc receptor (FcγRI) expression.
(§2) In the assays for both receptors, the Fc receptor-bearing cells were labeled with 2′,7′-bis-(2-carboxyethyl)-5-(and-6)-carboxyfluorescein acetoxymethyl ester (BCECF-AM) (Molecular Probes Eugene, Oreg., USA) for 20 minutes at 37° C. After washing to remove excess label, 1×10⁵ of the labeled cells were incubated in the assay for 30 minutes at 37° C. Unbound FcγR positive cells were removed by washing several times and plates were read on a microplate reader (Cytofluor 2350 Fluorescent Microplate Reader, Millipore Corporation Bedford, Mass., USA) at an excitation wavelength of 485 nm and an emission wavelength of 530 nm.

human C1q (Sigma C0660) [2] = biological target: T2, human C1q (Sigma C0660) (human, UniProt P02745 23-245; P02746 28-253; P02747 29-245); test: C1q bridging ELISA: antibody captured on plate-coated soluble human CD154, human C1q detected with sheep anti-C1q
T2 construct: The three subunits come from general knowledge of C1q; also called complement protein C1q
Procedure: (§3) The C1q binding assay was performed by coating 96 well Maxisorb ELISA plates (Nalge-Nunc Rochester, N.Y., USA) with 50 μl recombinant soluble human CD154 ligand (Karpusas et al. Structure, 15;3(12):1426 (1995) at 10 μg/ml overnight at 4° C. in PBS. The wells were aspirated and washed three times with wash buffer (PBS, 0.05% Tween 20) and blocked for ≧1 h with 200 μl/well of block/diluent buffer (0.1 M Na₂HPO₄, pH 7, 0.1 M NaCl, 0.05% Tween 20, 0.1% gelatin). The antibody to be tested was diluted in block/diluent buffer starting at 15 μg/ml with 3-fold dilutions. 50 μl were added per well, and the plates incubated for 2 h at room temperature. After aspirating and washing as above, 50 μl/well of 2 μg/ml of Sigma human C1q (C0660) diluted in block/diluent buffer was added and incubated for 1.5 h at room temperature. After aspirating and washing as above, 50 μl/well of sheep anti C1q (Serotec AHP033), diluted 3,560-fold in block/diluent buffer, was added. After incubation for 1 h at room temperature, the wells were aspirated and washed as above. […] The absorbance was read at 450 nm with a Softmax PRO instrument, and Softmax software was used to determine the relative binding affinity (C value) with a 4-parameter fit.

human C1q (Sigma C0660) [3] = biological target: T2, human C1q (Sigma C0660); test: C1q bridging ELISA: antibody captured on plate-coated soluble human CD154, human C1q 2 µg/ml detected with sheep anti-C1q
Procedure: as §3

[4] = biological target: T1, FcγRI (CD64) on IFNγ-activated U937 …; test: FcγRI bridging assay: antibody captured on plate-coated soluble human CD154, binding of fluorescently labeled IFNγ-activated U937 (CD64+) cells
Procedure: as §1, §2

T2 sequence (P02745 23-245 limits assumed, chain 1 of 3): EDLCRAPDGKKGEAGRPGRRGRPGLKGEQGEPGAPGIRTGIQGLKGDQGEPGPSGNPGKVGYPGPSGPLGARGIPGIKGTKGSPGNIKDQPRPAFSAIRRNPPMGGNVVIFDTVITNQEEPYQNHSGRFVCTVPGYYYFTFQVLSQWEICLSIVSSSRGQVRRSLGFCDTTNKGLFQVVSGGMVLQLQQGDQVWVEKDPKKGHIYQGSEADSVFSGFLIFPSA
T2 sequence (P02746 28-253 limits assumed, chain 2 of 3): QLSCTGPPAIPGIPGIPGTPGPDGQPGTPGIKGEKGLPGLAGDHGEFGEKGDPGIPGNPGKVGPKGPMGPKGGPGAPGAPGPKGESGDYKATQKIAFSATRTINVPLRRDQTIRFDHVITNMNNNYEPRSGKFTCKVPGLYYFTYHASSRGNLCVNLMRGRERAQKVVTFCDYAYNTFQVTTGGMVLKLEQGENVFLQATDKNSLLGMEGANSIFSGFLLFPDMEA
T2 sequence (P02747 29-245 limits assumed, chain 3 of 3): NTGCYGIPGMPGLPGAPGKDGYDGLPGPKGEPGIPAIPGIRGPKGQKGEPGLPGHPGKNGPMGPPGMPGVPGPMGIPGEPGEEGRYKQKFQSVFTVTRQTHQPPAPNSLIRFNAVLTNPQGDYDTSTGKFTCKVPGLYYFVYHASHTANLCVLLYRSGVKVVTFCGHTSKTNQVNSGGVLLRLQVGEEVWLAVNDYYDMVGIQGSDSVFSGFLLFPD
T1 sequence (P12314 16-374 limits assumed): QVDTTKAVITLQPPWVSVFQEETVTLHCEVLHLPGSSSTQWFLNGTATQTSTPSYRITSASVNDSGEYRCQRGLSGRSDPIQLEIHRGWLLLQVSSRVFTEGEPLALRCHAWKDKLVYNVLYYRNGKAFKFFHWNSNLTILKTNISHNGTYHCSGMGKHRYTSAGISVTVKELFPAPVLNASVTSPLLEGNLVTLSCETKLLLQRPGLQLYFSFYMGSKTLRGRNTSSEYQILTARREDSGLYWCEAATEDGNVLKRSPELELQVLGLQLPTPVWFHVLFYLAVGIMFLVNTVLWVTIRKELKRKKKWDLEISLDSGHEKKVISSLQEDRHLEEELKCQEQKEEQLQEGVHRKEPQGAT

binding result [1]: binds
binding result (human C1q (Sigma C0660) [2]): no binding
B1: hu5c8 IgG4 variant (S228P/T299A), aglycosylated (antibody)
heavy: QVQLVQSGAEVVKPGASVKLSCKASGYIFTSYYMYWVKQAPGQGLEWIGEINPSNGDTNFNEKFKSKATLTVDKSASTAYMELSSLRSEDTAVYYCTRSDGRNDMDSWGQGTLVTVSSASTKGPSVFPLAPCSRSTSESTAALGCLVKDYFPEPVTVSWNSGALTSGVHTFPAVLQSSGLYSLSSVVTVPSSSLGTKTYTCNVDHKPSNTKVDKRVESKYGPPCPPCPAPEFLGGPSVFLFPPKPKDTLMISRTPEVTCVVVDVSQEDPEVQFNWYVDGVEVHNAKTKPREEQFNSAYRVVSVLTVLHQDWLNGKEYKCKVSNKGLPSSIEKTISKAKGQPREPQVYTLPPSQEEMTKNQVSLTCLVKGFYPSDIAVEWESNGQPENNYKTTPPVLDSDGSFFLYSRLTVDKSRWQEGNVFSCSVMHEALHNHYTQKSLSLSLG
light: DIVLTQSPATLSVSPGERATISCRASQRVSSSTYSYMHWYQQKPGQPPKLLIKYASNLESGVPARFSGSGSGTDFTLTISSVEPEDFATYYCQHSWEIPPTFGGGTKLEIKRTVAAPSVFIFPPSDEQLKSGTASVVCLLNNFYPREAKVQWKVDNALQSGNSQESVTEQDSKDSTYSLSSTLTLSKADYEKHKVYACEVTHQGLSSPVTKSFNRGEC
notes: also called IgG4 T299A; aglycosyl IgG4 T299A antibody variant

binding result (human C1q (Sigma C0660) [3]): binds
binding result [4]: binds
B2: hu5c8 IgG1 (glycosylated parent anti-CD154 antibody) (antibody)
heavy: not shown
light: B1 light
notes: Expressed in EBNA 293 cells; also called hu5c8 antibody; glycosylated IgG1
